Laboratory results from publication PMC7334434.

Target: 14-3-3β (UniProt P31946)
Experiment: co-IP
Conditions: reference: wild type

Substance | binding against the reference (sites S138) | binding against the reference (sites S142)
TFEB (from UniProt P19484) S138A | weaker | –
TFEB (from UniProt P19484) S142A | – | weaker
